Assay results published in article PMC3876883.

Experiments:
Test in all cases: single-particle photobleaching
[1] = molecular target: K2P3–WT, tandem subunit of K2P3 and wild-type K2P1 (human) (UniProt O14649)
[2] = molecular target: K2P9–WT, tandem subunit of K2P9 and wild-type K2P1 (human) (UniProt Q9NPC2)
[3] = molecular target: WT–K2P3, tandem subunit of wild-type K2P1 and K2P3 (human) (UniProt O00180)
[4] = molecular target: WT–K2P9, tandem subunit of wild-type K2P1 and K2P9 (human) (UniProt O00180)

UniProt Q9NPC2, sequence (Q9NPC2 whole entry, looked up, tested part not stated): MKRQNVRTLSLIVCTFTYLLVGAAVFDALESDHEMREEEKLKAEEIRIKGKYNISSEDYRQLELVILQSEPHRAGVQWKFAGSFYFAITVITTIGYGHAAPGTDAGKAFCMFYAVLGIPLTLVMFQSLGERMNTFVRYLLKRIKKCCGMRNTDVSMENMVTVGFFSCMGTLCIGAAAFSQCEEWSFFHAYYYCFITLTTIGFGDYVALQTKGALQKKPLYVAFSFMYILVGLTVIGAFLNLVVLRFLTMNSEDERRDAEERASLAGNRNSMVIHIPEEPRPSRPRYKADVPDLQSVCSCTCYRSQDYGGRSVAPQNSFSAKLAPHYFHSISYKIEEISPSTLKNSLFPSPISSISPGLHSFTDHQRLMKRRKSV
UniProt O14649, sequence (O14649 whole entry, looked up, tested part not stated): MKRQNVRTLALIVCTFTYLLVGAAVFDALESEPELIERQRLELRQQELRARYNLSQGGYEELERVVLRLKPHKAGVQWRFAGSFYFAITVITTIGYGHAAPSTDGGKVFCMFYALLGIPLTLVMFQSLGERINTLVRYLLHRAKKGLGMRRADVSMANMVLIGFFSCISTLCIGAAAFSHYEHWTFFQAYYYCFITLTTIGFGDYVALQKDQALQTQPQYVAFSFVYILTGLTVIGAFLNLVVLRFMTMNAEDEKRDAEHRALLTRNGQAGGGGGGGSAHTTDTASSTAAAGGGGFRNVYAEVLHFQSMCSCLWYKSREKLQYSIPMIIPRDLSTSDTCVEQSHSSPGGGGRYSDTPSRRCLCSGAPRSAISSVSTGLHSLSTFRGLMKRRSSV

GFP-SUMO1 (from UniProt P63165 1-97) (natural protein)
1: stoichiometry N (SUMO1 per channel) [1] | stoichiometry N (SUMO1 per channel) [2] | stoichiometry N (bleaching step per particle) [3] | stoichiometry N (bleaching step per particle) [4]
